Earlier results on one substance are cited in article PMC3039444.

As usually defined, the Kd is the free concentration of one partner at which half of the binding sites on the other are occupied at equilibrium, for simple one-to-one binding.

The target in the data set is Ube2g2 (Homo sapiens) (UniProt P60604).
UniProt P60604, sequence (P60604 2-165): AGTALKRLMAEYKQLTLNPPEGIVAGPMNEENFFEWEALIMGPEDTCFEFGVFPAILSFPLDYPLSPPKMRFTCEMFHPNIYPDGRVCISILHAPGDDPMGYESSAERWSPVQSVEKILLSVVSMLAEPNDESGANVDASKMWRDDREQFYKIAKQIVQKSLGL

For gp78 G2BR (from UniProt Q9UKV5), the equilibrium dissociation constant (Kd) was 21 nM.
